Article PMC7116205

VAMP2 (1-116) (mouse), sequence (P63044 other isoform, or with tags, fused parts or gaps): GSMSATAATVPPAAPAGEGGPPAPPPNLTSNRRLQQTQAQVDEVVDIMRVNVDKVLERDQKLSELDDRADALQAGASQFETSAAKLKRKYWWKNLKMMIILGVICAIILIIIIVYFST
syntaxin 1A 1-288 (rat), sequence (P32851 whole entry T251I): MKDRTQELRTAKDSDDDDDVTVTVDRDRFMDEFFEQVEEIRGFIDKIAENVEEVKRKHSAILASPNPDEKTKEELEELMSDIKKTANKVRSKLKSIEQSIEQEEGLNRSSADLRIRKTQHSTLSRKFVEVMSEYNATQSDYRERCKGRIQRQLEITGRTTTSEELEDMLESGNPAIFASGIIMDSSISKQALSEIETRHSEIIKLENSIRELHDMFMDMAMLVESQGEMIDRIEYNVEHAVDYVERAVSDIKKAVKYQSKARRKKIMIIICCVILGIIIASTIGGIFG

CpxII H52BPA (natural protein)
share of the cross-links that are SDS sensitive (not in SDS-resistant cis v/t-SNARE complexes) after Ca2+, unboiled samples (syntaxin 1A 1-288 (rat)): 14%

CpxII A40BPA (natural protein)
share of the cross-links that stay SDS sensitive (not in SDS-resistant cis v/t-SNARE complexes) after Ca2+ (VAMP2 (1-116) (mouse)): 74%
